In paper PMC8529501 (iScience, 2021):

How the values were obtained:
[1] = target: mTOR (FRB)-N-Luciferase reporter; assay: split-luciferase complementation (dual element luciferase assay); design: unit not given here; conditions: HEK293T cells, rapamycin treatment; parent: est. 13; read off a plot
SIRT2 = target: T1, SIRT2 (Homo sapiens, UniProt Q8IXJ6); assay: ITC; also label-free MST (Kd […]) and native PAGE; assay type: binding
T1 construct: GST-tagged SIRT2 expressed in E. coli BL21
T1 sequence (Q8IXJ6 2-389): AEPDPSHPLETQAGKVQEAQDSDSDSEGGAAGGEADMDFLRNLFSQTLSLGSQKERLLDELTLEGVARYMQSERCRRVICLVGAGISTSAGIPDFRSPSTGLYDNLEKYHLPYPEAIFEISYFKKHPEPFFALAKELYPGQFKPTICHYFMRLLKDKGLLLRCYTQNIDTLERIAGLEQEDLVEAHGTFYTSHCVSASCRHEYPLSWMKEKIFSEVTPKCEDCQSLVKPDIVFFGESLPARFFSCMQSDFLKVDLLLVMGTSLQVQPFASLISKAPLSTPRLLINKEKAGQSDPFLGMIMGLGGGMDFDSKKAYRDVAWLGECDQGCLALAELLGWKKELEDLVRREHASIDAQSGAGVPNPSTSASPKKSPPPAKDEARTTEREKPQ

Row | Compound | response [1] | Kd (SIRT2)
1 | FKBP12-C-Luc (from UniProt P62942) K48R | 16 | –
2 | FKBP12-C-Luc (from UniProt P62942) K45R | 13 | –
3 | FKBP12-C-Luc (from UniProt P62942) E108A | 5.5 | –
4 | FKBP12-C-Luc (from UniProt P62942) K53Q | 10 | –
5 | FKBP12-C-Luc (from UniProt P62942) K48Q | 5 | –
6 | FKBP12-C-Luc (from UniProt P62942) K45Q | 1.9 | –
7 | FKBP12-C-Luc (from UniProt P62942) K53R | 16 | –
8 | CO[C@H]1C[C@@H]2CC[C@@H](C)[C@@](O)(O2)C(=O)C(=O)N2CCCC[C@H]2C(=O)O[C@H]([C@H](C)C[C@@H]2CC[C@@H](O)[C@H](OC)C2)CC(=O)[C@H](C)/C=C(\C)[C@@H](O)[C@@H](OC)C(=O)[C@H](C)C[C@H](C)/C=C/C=C/C=C/1C [Rapamycin] | – | 9.5 nM
